Data on 2 molecules can be found in patent JP2005185281A.

Test [1] concerns the target SKOv-3細胞 (卵巣癌細胞株) の細胞表面抗原. The test is described as follows: phage recovery: 1x10^7 phage + 1x10^7 SKOv-3 cells, 4C 4 h, 3 spins through solution (1) 1%BSA-MEM; colonies counted.
Test [2] has as its target SKOv-3細胞 (卵巣癌細胞株) の細胞表面抗原. The test is described as follows: phage recovery: 1x10^7 phage + 1x10^7 SKOv-3 cells, 3 spins through solution (1) 1%BSA-MEM; colonies counted.
Test [3] deals with SKOv-3膜タンパク (可溶性分画、ダイナビーズ結合). The test can be described thus: phage recovery: Dynabeads with 10 ug SKOv-3 membrane protein + 1x10^8 cfu phage.
For test [4], the target named is SKOv-3細胞 (卵巣癌細胞株) の細胞表面抗原. The test is described as follows: phage recovery: 1x10^7 phage + 1x10^7 SKOv-3 cells, 4C 4 h, 3 spins through solution (3) Isopropyl Ether:1.1.1-Trichloroethane:Hexane=20:50:30; colonies counted.
The target of test [5] is SKOv-3細胞 (卵巣癌細胞株) の細胞表面抗原. The test is described as follows: phage recovery: 1x10^7 phage + 1x10^7 SKOv-3 cells, 3 spins through solution (2) Ficoll-Paque diluted 4-fold in PBS; colonies counted.
Test [6] addresses SKOv-3細胞 (卵巣癌細胞株) の細胞表面抗原. The test is described as follows: phage recovery: 1x10^7 phage + 1x10^7 SKOv-3 cells, 4C 4 h, 3 spins through solution (2) Diphenyl Ether:1.1.1-Trichloroethane:Hexane=44:27:33; colonies counted.
For test [7], the target named is SKOv-3膜タンパク (可溶性分画、ダイナビーズ結合). The test is described as follows: phage recovery on SKOv-3 membrane protein beads with 400 ug free SKOv-3 membrane protein as competitor.
The target of test [8] is SKOv-3膜タンパク (可溶性分画、ダイナビーズ結合). The test is described as follows: phage recovery on SKOv-3 membrane protein beads with 400 ug free HeLa membrane protein present.
Test [9] has as its target SKOv-3膜タンパク (可溶性分画、ダイナビーズ結合). The test can be described thus: phage recovery on SKOv-3 membrane protein beads with 400 ug free SKOv-3 membrane protein against recovery without it.

Take “pAALSC3-D1.3HL 抗HEL(hen egg lysozyme)抗体ファージ (scFv)”: the 回収されたファージの数 in test [1] is 308 ファージ数; in test [2] it was 1040 ファージ数; in [4], 198 ファージ数; in test [5] it was 1040 ファージ数; in [6], 176 ファージ数. In test [3], the 回収されたファージ (cfu) worked out at 11 cfu.

B1: クローン126 (015-126 pIII:抗HER2抗体、ファージpIII融合scFv型抗体) (scFv, part only; not given: CL and pIII fusion parts, part only)
scFv, part: QVQLVQSGAEVKKPGESLKISCKGSGYSFTSYWIGWVRQMPGKGLEWMGIIYPGDSDTRYSPSFQGQVTISADKSISTAYLQWSSLKASDTAMYYCARLTLSYSSSWFDYWGQGTLVTVSSQTVVTQEPSFSVSPGGTVTLTCGLSSGSVSTSYYPSWYQQTPGQAPRTLIYSTNTRSSGVPDRFSGSILGNKAALTITGAQADDESDYYCVLYMGSGISVFGGGTKLTVL
With B1, the 回収されたファージ (cfu) came out at 2200 cfu in test [7], 87000 cfu in test [3] and 50000 cfu in test [8]. In test [9], this molecule came in with a 回収の変化 (遊離SKOv-3膜タンパク共存 / 非共存) of 0.025 fold.
